Patent US20260242447A1
pKd: −log10 of the molar value.

Molecular target: SARS-CoV-2 spike protein (full length) (SARS-CoV-2) (UniProt P0DTC2)
Experiment: ELISA, GRP78-HRP on plate-bound spike protein

GRP78 (soluble / recombinant protein), P11021 19-654 (other; other documents disagree on this pair), sequence (P11021 19-654 limits assumed): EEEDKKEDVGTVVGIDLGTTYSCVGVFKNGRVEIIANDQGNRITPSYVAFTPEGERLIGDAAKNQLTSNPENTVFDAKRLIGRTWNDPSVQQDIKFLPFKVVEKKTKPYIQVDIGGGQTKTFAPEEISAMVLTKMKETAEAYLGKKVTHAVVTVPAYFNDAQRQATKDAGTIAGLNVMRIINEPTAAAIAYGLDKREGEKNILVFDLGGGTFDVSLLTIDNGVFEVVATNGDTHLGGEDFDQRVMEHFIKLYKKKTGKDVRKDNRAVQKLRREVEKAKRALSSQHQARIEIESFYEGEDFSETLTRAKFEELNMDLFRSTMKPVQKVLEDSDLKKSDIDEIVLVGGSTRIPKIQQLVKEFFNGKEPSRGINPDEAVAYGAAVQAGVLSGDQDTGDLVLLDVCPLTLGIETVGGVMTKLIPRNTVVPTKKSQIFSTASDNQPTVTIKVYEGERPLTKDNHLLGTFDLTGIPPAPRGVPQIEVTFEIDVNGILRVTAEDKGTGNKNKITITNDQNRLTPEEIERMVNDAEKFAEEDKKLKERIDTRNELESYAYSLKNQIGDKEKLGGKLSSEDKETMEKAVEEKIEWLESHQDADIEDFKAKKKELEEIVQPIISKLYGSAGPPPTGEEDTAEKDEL

## GRP78 (soluble / recombinant protein), P11021 19-654 (other; other documents disagree on this pair)
  pKd: 6.53
